{"source": "patent US20140329742A1", "about": "(GlaxoSmithKline, published 2014)", "key": {"[1]": {"biological_target": "T1, human Neuropeptide Y receptor type 2 (human, UniProt P49146 1-381)", "T1 sequence (looked up)": "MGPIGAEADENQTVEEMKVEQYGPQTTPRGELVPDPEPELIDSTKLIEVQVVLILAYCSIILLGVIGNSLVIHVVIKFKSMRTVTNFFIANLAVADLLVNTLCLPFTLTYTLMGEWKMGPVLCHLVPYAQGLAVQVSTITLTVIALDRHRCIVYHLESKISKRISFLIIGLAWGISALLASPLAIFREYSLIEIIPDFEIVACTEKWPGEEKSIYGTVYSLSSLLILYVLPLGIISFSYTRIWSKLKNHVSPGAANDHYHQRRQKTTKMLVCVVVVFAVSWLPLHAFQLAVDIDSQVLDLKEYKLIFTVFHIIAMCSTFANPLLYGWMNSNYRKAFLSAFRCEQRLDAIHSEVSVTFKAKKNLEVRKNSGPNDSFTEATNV", "experiment": "cell-based or functional assay"}, "[2]": {"biological_target": "T1, human Neuropeptide Y receptor type 2", "experiment": "cell-based or functional assay", "remark": "listed apart in the source"}}, "note": "Read-outs that look alike come from different tables or passages of the source. Where no end group is shown, it is not given here."}
{"binder": "PKPEAPGKDASPEELNRYYASLRKYLNWLTRQRY-NH2", "note": "[Example 2]", "values": [{"measurement": "hNPY Y2 pEC50 (melanophore assay)", "setting": "[1]", "value": 9.8}]}
{"binder": "PKPEHPGKDASPEEWNRYYASLRKYLNWVTRQRY-NH2", "note": "[Example 25]", "values": [{"measurement": "hNPY Y2 pEC50 (melanophore assay)", "setting": "[1]", "value": 9.6}]}
{"binder": "PKPEAPGKDASPEELNRYYASLRKYLNWVTRQRY-NH2", "note": "[Example 31]", "values": [{"measurement": "hNPY Y2 pEC50 (melanophore assay)", "setting": "[1]", "value": 9.8}]}
{"binder": "PKPEAPGCDASPEEWNRYYASLRKYLNWVTRQNY-NH2", "note": "[Peptide 1]", "values": [{"measurement": "hNPY Y2 pEC50 (melanophore assay)", "setting": "[2]", "value": 7.9}]}
{"binder": "IKPEAPLSKQLEEEAVRYYASLRHYLNLVTRQRY-NH2", "note": "[Peptide 2]", "values": [{"measurement": "hNPY Y2 pEC50 (melanophore assay)", "setting": "[2]", "value": 8.6}]}
{"binder": "PKPEAPGEDASPKEWNRYYASLRKYLNWVTRQRY-NH2", "note": "[Peptide 3]", "values": [{"measurement": "hNPY Y2 pEC50 (melanophore assay)", "setting": "[2]", "value": 9.2}]}
{"binder": "IKPPYPGCDASPEEQNKYYASLRAYWNLVTRQRY-NH2", "note": "[Peptide 8]", "values": [{"measurement": "hNPY Y2 pEC50 (melanophore assay)", "setting": "[2]", "value": 9.3}]}
{"binder": "PKPEAPGCDASPEEWNRYYASLRKYLNWVTRQHY-NH2", "note": "[Peptide 14]", "values": [{"measurement": "hNPY Y2 pEC50 (melanophore assay)", "setting": "[2]", "value": 8.2}]}
{"binder": "PKPVAPGCDASPAELNRQYSDLRNYWNLVTRQRY-NH2", "note": "[Peptide 15]", "values": [{"measurement": "hNPY Y2 pEC50 (melanophore assay)", "setting": "[2]", "value": 8.9}]}
{"binder": "PKPEAPLSKQLEEEAVRYYASLRHYLNLVTRQRY-NH2", "note": "[Peptide 21]", "values": [{"measurement": "hNPY Y2 pEC50 (melanophore assay)", "setting": "[2]", "value": 8.7}]}
